# Experimental data as given in publication PMC3058308 (Nature, 2011).
# B1: Nanobody-80 (VHH)
# VHH: QVQLQESGGGLVQAGGSLRLSCAASGSIFSINTMGWYRQAPGKQRELVAAIHSGGSTNYANSVKGRFTISRDNAANTVYLQMNSLKPEDTAVYYCNVKDYGAVLYEYDYWGQGTQVTVSS
# What was measured:
# β2AR-T4L = assay type: binding, human
# mBB-β2AR/HDL = mBB-β2AR/HDL (Homo sapiens, UniProt P07550); test: Bimane fluorescence spectroscopy on mBB-β2AR reconstituted in HDL particles; assay type: biochemical
# [1] = target: β2 adrenergic receptor truncated at position 365, reconstituted in HDL particles (Homo sapiens (Human)., UniProt P07550); test: radioligand binding
Molecule,"Ki (β2AR-T4L; read-out: Ki in the presence of Nb80, β2AR-T4L/HDL, Nb80 1 μM, 0.6 nM [3H]-DHA) [nM]",increase of affinity in the presence of Nb80 (β2AR-T4L; β2AR-T4L/HDL with Nb80 versus without) [fold],"effect on bimane fluorescence of β2AR bound to inverse agonist ICI-118,551 (mBB-β2AR/HDL; 300 nM Nb80, 1 μM ICI)","effect on bimane fluorescence in the presence of isoproterenol (mBB-β2AR/HDL; 300 nM Nb80, 10 μM isoproterenol)",binding result [1]
isoproterenol,0.56,60,,,
B1,,,not observed,increased,binds
